Target: FcγRIIIa-bio (UniProt P08637)
Test: BLI (Fortebio), FcγRIIIa-bio immobilized on SA sensor, antibody 31.3-500 nM, 1:1 fit

UniProt P08637, sequence (P08637 17-208 limits assumed): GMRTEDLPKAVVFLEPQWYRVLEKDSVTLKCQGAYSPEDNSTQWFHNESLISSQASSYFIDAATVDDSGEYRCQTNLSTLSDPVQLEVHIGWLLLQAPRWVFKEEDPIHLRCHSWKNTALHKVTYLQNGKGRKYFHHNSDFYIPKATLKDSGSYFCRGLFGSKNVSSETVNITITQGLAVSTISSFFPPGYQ

MEDI9447 (Oleclumab) (antibody)
Kd: 141 nM | koff: 0.0342 s⁻¹ | kon: 243000 M⁻¹ s⁻¹
